Reference: patent US20050214813A1

Target: Aβ1-28 consisting of 28 amino acid residues from the N-terminus of Aβ (UniProt P05067)
Assay: cell-based or functional assay

Aβ1-28 consisting of 28 amino acid residues from the N-terminus of Aβ, sequence (P05067 672-699): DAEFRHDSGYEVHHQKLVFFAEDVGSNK

Row | Fluorescence Intensity (thioflavin-T, Aβ1-28 aggregation after 24 hours, relative to the Aβ40-1 control taken as 100%) [%] | Binder
1 | 16 | PSEC0242 (supernatant containing the product expressed from the clone of SEQ ID NO. 7) (protein) MMGLGNGRRSMKSPPLVLAALVACIIVLGFNYWIASSRSVDLQTRIMELEGRVRRAAAERGAVELKKNEFQGELEKQREQLDKIQSSHNFQLESVNKLYQDEKAVLVNNITTGERLIRVLQDQLKTLQRNYGRLQQDVLQFQKNQTNLERKFSYDLSQCINQMKEVKEQCEERIEEVTKKGNEAVASRDLSENNDQRQQLQALSEPQPRLQAAGLPHTEVPQGKGNVLGNSKSQTPAPSSEVVLDSKRQVEKEETNEIQVVNEEPQRDRLPQEPGREQVVEDRPVGGRGFGGAGELGQTPQVQAALSVSQENPEMEGPERDQLVIPDGQEEEQEAAGEGRNQQKLRGEDDYNMDENEAESETDKQAALAGNDRNIDVFNVEDQKRDTINLLDQREKRNHTL
2 | 250 | PSEC0220 (supernatant containing the product expressed from the clone of SEQ ID NO. 5) (protein) LWWAVGSPLVMDPTSICRKARRLAGRQAELCQAEPEVVAELARGARLGVRECQFQFRFRRWNCSSHSKAFGRILQQDIRETAFVFAITAAGASHAVTQACSMGELLQCGCQAPRWRAPPRPSGLPGTPGPPGPAGSPEGSAAWEWGGCGDDVDFGDEKSRLFMDARHKRGRGDIRALVQLHNNEAGRLAVRSHTRTECKCHGLSGSCALRTCWQKLPPFREVGARLLERFHGASRVMGTNDGKALLPAVRTLKPPGRADLLYAADSPDFCAPNRRTGSPGTRGRACNSSAPDLSGCDLLCCGRGHRQESVQLEENCLCRFHWCCVVQCHRCRVRKELSLCL

More lines, now with the values behind:

Row | Binder | Fluorescence Intensity (thioflavin-T, Aβ1-28 aggregation after 24 hours, relative to the Aβ40-1 control taken as 100%) [%]
3 | PSEC0129 (supernatant containing the product expressed from the clone of SEQ ID NO: 3) (protein) AFHASAVGLRSSDEQKQQPPNSFSQQHSETQGAEKPDPESSHSPPRYTDQGGEEEEDYESEEQLQHRILTAALEFVPAHGWTAEAIAEGAQVCIGEGGAT | 24
4 | PSEC0256 (supernatant containing the product expressed from the clone of SEQ ID NO. 9) (protein) MAGHSMVLVEILDVNDNVPEVMVTSLSLPVQEDAQVGTVIALISVSDRDSGANGQVICSLTPHVPFKLVSTYKNYYSLVLDSALDRESVSAYELVVTARDGGSPSLWATARVSVEVADVNDNAPAFAQPEYTVFVKENNPPGCHIFTVSAWDADAQKNALVSYSLVERRVGEHALSSYVSVHAESGKVYALQPLDHEELELLQFQVSARDAGVPPLGSNVTLQVFVLDENDNAPALLATPAGSAGGAVSELVPRSVGAGHVVAKVRAVDADSGYNAWLSYELQPAAVGAHIPFHVGLYTGEISTTRILDEADAPRHRLLVLVKDHGEPALTSTATVLVSLVENGQAPKTSSRASVGAVDPEAALVDINVYLIIAICAVSSLLVLTLLLYTALRCSAPPTVSRCAPGKPTLVCSSAVGSWSYSQQRRQRVCSAESPPKTDLMAFSPSLQLSREDCLNPPSEPRQPNPDWRYSASLRAGMHSSVHLEEAGILRAGPGGPDQQWPTVSSATPEPEAGEVSPPVGAGVNSNSWTFKYGPGNPKQSGPGELPDKFIIPGSPAIISIRQEPTNSQIDKSDFITFGKKEETKKKKKKKKGNKTQEKKEKGNSTTDNSDQ | 460
